# Measurements reported in the DeepSol protein solubility set.
# Test: soluble on expression in E. coli; label from the status in PepcDB or PDB records
row,Sequence,soluble on expression in E. coli
1,MATPASGALLQQMNLASQSLNYELSFISINKQGVESLRYRHARLDNRPLAQLLQMDGPRREVVQRGNEISYFEPGLEPFTLNGDYIVDSLPSLIYTDFKRLSPYYDFISVGRTRIADRLCEVIRVVARDGTRYSYIVWMDTESKLPMRVDLLDRDGETLEQFRVIAFNVNQDISSSMQTLAKANLPPLLSVPVGEKAKFSWTPTWLPQGFSEVSSSRRPLPTMDNMPIESRLYSDGLFSFSVNVNRATPSSTDQMLRTGRRTVSTSVRDNAEITIVGELPPQTAKRIAENIKFGAAQHHHHHH,soluble
2,MATSAEVSQRVLAYLVEQLGVDVSFLRHNDRDRRATRLVAEWPPRLNIPDPDPLRLIYFADADPVFALCEHAKEPLVFRPEPATEDYQRLIEEARGVPVTSAAAVPLVSGEITTGLLGFIKFGDRKWHEAELNALMTIATLFAQVQARVAAEARLRYLADHDDLEHHHHHH,not soluble
3,MATTLPVQRHPRSLFPEFSELFAAFPSFAGLRPTFDTRLMRLEDEMKEGRYEVRAELPGVDPDKDVDIMVRDGQLTIKAERTEQKDFDGRSEFAYGSFVRTVSLPVGADEDDIKATYDKGILTVSVAVSEGKPTEKHIQIRSTN,soluble
4,MATTSAQTSPTEFGAGLPEAEDHSESAEPQSVEAEVIDERYADVWEKIQHARTIDVHDDAEVRKQRNFFDDKQKFMTQVTQRAEPFLYYIVSQLEARNMPLELALLPIVESGYNPLAQANGPAGLWQMIPATGRNFGLTINSAYDGRKDALASTDAVLDYLQHLYNTLGNDWINAVAGYNSGELVIKAAIDRNKAKGKPTDFWSLNIPARQVQTVPKWLAFIQIIREPSHYNLKVMPIANRPFLERLPAPNGVEISQIANAAGLTKAEFKTYNPGYRQSVIPSKGKYQIALPIENIGHYQENQHKLYAQKRYDSQTYIVKSGDSLGTIAAKFDLSVKELKQANNLTSDRLKIGQELTLLTPMAANDNEPEPVKTKANTDKSSTKANASSTKATSSKSTDKPVAKAKTYKVKSGDSLDKIARKSKVKLADLMKWNQLNAKSIIKPGQELKISELEHHHHHH,not soluble
5,MATTVQLSDQSLRQLETLAIHTAHLIQPHGLVVVLQEPDLTISQISANCTGILGRSPEDLLGRTLGEVFDSFQIDPIQSRLTAGQISSLNPSKLWARVMGDDFVIFDGVFHRNSDGLLVCELEPAYTSDNLPFLGFYHMANAALNRLRQQANLRDFYDVIVEEVRRMTGFDRVMLYRFDENNHGDVIAEDKRDDMEPYLGLHYPESDIPQPARRLFIHNPIRVIPDVYGVAVPLTPAVNPSTNRAVDLTESILRSAYHCHLTYLKNMGVGASLTISLIKDGHLWGLIACHHQTPKVIPFELRKACEFFGRVVFSNISAQEDTETFDYRVQLAEHEAVLLDKMTTAADFVEGLTNHPDRLLGLTGSQGAAICFGEKLILVGETPDEKAVQYLLQWLENREVQDVFFTSSLSQIYPDAVNFKSVASGLLAIPIARHNFLLWFRPEVLQTVNWGGDPNHAYEATQEDGKIELHPRQSFDLWKEIVRLQSLPWQSVEIQSALALKKAIVNLILRQAEEHHHHHH,soluble
6,MATYYSNDFRAGLKIMLDGEPYAVEASEFVKPGKGQAFARVKLRRLLTGTRVEKTFKSTDSAEGADVVDMNLTYLYNDGEFWHFMNNETFEQLSADAKAIGDNAKWLLDQAECIVTLWNGQPISVTPPNFVELEIVDTDPGLKGDTAGTGGKPATLSTGAVVKVPLFVQIGEVIKVDTRSGEYVSRVK,soluble
7,MAVGAPFLYRYSLYNCAYVILNGKVLGIVPKSYIPNYSEFYEKRWFTEGFNIKGLNVDLDFQKEVPFGTDLIFSFKNLKVGFEICEDLWVTIPPSSNLALMGANLICNLSASNELVSKSSYRKSLVQNQSARTMCSYIYSSAGVHESTTDLLFSGHMIIAENGTIIKENNRFKRENDLLTGIVDLFKLDAERIKNISFRNSTFNENNEPRFIPFNLENTEIKNFDREIDKHPFLPKSQYAMEARCEEILNIQAAALAKRLEHTNLKKAVIGISGGLDSTLALLVVVKTFDMLNIPRENIITITMPGFGTTDRTYNNAVTLCKELHCDFREINIVNAALQHFEDIGHDKDIHDVTYENVQARERTQILMDLANKEGGLLIGTGDLSELALGWCTYNGDHMSMYSVNCSIPKTLVRFLVNYFANHEISNDAKEALLDILDTPVSPELLPKDKEGKIAQKTEDIVGPYELHDFFLYHFIKHGSSPERILFLAKEAFKNDYDEETLKKWLDKFIRRFFTQQFKRSALPDGPKVGSISLSPRGDWRMPSDAVYNDFLILEHHHHHH,not soluble
8,MAVGSVATLATEPGEDAFRKLFRFYRQSRPGTADLEGVIDFSAAHAARGKGPGAQKVIKSQLNVSSVSEQNAYRAGLQPVSKWQAYGLKGYPGFIFIPNPFLPGYQWHWVKQCLKLYSQKPNVCNLDKHMSKEETQDLWEQSKEFLRYKEATKRRPRSLLEKLRWVTVGYHYNWDSKKYSADHYTPFPSDLGFLSEQVAAACGFEDFRAEAGILNYYRLDSTLGIHVDRSELDHSKPLLSFSFGQSAIFLLGGLQRDEAPTAMFMHSGDIMIMSGFSRLLNHAVPRVLPNPEGEGLPHCLEAPLPAVLPRDSMVEPCSMEDWQVCASYLKTARVNMTVRQVLATDQNFPLEPIEDEKRDISTEGFCHLDDQNSEVKRARINPHSLEHHHHHH,soluble
9,MAVIVKYVVERNGEEKMTFTSKAEADAYDKMLDMADELFELLGKSALIEDEAKQEELAMFLAQNKEDVLCALGAKRKPAPATGKKPKAVADSDDDESVDDAA,not soluble
10,MAVKHASAPKAYINITGLGFAKLTKEGAELKYSDITKTRGLQKIGVETGGELKTAYADGGPIESGNTDGEGKISLQMHAFPKEIRKIVFNEDYDEDGVYEEKQGKQNNYVAVWFRQERRDGTFRTVLLPKVMFTNPKIDGETAEKDWDFSSEEVEGEALFPLVDNKKSVRKYIFDSANMTNHGGDGEKGEEAFLKKILGEEYTGNVTEDNEETLLEHHHHHH,soluble
11,MAVLGLQGVRGGVGTTTITAALAWSLQMLGENVLVVDACPDNLLRLSFNVDFTHRQGWARAMLDGQDWRDAGLRYTSQLDLLPFGQLSIEEQENPQHWQTRLSDICSGLQQLKASGRYQWILIDLPRDASQITHQLLSLCEHSLAIVNVDANCHIRLHQQALPDGAHILINDFRIGSQVQDDIYQLWLQSQRRLLPMLIHRDEAMAECLAAKQPVGEYRSDALAAEEILTLANWCLLNYSGLKTPVGSAS,not soluble
12,MAVPEGNSWTYTAASASITAPAQLVGNVGELQGAGSAVIWNVDVPVTGEYRINLTWSSPYSSKVNTLVMDGTALSYAFAEATVPVTYVQTKTLSAGNHSFGVRVGSSDWGYMNVHSLKLELLGGLTIRSPANLEHHHHHH,soluble
13,MAVPPAYSDLGKSAKDIFSKGYGFGIVKLDLKTKSQNGVEFNTSGSTNTDTGKAAGSLETKYKLKDLGLSFNQKWNTDNMLTTEVSVEDQLAEGLKVALDTSFVPNTGKKSGKLKTSYKREFVNVSCDLDFEGPVVHSAAVLGYEGWLLGYLVAFDTAKSKLVQNNFALGYKTGDFQLHTNVNDGAEFGGSVYQKVSDQLETAVTLAWTAGSNNTRFGVAAKYQLDKDASLSAKVNNASLIGIGYTQSLRPGVKLTLSALVDGKNFNTGGHKVGLGFELEA,not soluble
14,MAVPSGVHRCFFRGQSVSLEKLLSIFASEVCEQVVFIGENHEHSVAQQLELRILEALWLSSQRQNRQLLLSLEFLDRSQQHVLNEAMLRDEIESVVPEPYVPLVRFARTNNLAVLAANAPRSITSRVAKQGQQAVMETLSPKERAWCAPTPWPAPSNAYSEAFQAIMQQVMRPDPSSAQAQQERMQRMLQAQSLWDATMAFSIAEALERYPKAQVLHVTGFFHVANRLGTVEMLAHYRNTVNALVSIVYPEELQHSTSALDGDVVIYAP,not soluble
15,MAVRPVLAVGSYLPHAPWPWGVIDQAARVLLPASTTVRAAVSLPNASAQLVRASGVLPADGTRRAVLYLHGGAFLTCGANSHGRLVELLSKFADSPVLVVDYRLIPKHSIGMALDDCHDGYRWLRLLGYEPEQIVLAGDSAGGYLALALAQRLQEVGEEPAALVAISPLLQLAKEHKQAHPNIKTDAMFPARAFDALDALVASAAARNQVDGEPEELYEPLEHITPGLPRTLIHVSGSEVLLHDAQLAAAKLAAAGVPAEVRVWPGQVHDFQVAASMLPEAIRSLRQIGEYIREATG,soluble
16,MAVSLFKQLQIVWDYHLVNQEIRKSDAIFVLCSYDLRVAEHAAQLYLDGYAPLLIFSGAQGRATEGLFTLSEAETFANVAKDMGVPSSAIIVETKATNTGENIFFTQALLKERNISVSSLILVQKPYMERRLLATFLKNWNDIEFCISSPNISFINYPTDEITFDHIASIILGELHRLKVYPTLGYQEAQEIPDEVWQAFENLTQLGFDEYLLTNDNLEHHHHHH,not soluble
17,MAVVKVIRKLKAKRVVIKVGTSTLVYPDGSINLRAIDQLAFVISAMRHRGREVVLVSSGAIGVGLNYMGLKQRPKAIPEQQAIAAIGQTELISIYKERFAIYEQKIGQLLLTRDIFVYPKSHHNVLNTFEALLKQNVVPIVNENDTVAVDELDHETKFGDNDQLSAIVATNIGADLLIMLSDIDGFYDGNPNADARAQLLGHIEKVDQHTYKLAGGSGSRFGTGGMVTKLKAAERMIDANGQMILANGADPTIIFQILAGEPVGTLFGLEHHHHHH,not soluble
18,MAYCNPGLESRPNKRNALRRHVVTGIGMKIVIAPDSYKESLSASEVAQAIEKGFREIFPDAQYVSIPVADGGEGTVEAMIAATQGSERHAWVTGPLGEKVNASWGISGDGKTAFIEMAAASGLELVPAEKRDPLVTTSRGTGELILQALESGATNIIIGIGGSATNDGGAGMVQALGAKLCDANGNEIGFGGGSLNTLNDIDISGLDPRLKDCVIRVACDVTNPLVGDNGASRIFGPQKGASEAMIVELDNNLSHYADVIKKALHVDVKDVPGAGAAGGMGAALMAFLGAELKSGIEIVTTALNLEEHIHDCTLVITGEGRIDSQSIHGKVPIGVANVAKKYHKPVIGIAGSLTDDVGVVHQHGIDAVFSVLTSIGTLDEAFRGAYDNICRASRNIAATLAIGMRNTG,not soluble
19,MAYITYQQYLDLYGTCPISEEEFPVYAGLASDMIDSITRYRIVEGGGISALPSILQTLVQKAAAAQVLYFTQIGLETVLTGQAGQSFTVGKVSVSGGALSSTTTKPGALMVSPFALSLLEQTPLMERGVHVCSDRFLNPFWGILEHHHHHH,soluble
20,MAYKSLLTVATSPERVEPAITVASRLALSSDAHLDVLALGIDGTQVAYYNMGGTAVVLQMALERAEQEAQAVEKAAAAALSAQPAMLRASVESAVAQMGGLAGLVALRSRFADLVVLSRPYGKGRGAETEAVVEAALFEGQAPVLVVPDDPALSERFGHRIVIAWDQSREALTAVRKAMPFLLRADNVDIVIVDPAAHGAERSDPGGALCQMLVRHGVRAEVSVLAKTMPRISDVIARHVRDQDADLLVMGAYGHSRFREAILGGATRDMLELAEVPVLMAH,not soluble
21,MAYLEQLQAGLRYLGRAGESGRKSLDKVVAPVNGAISEIRGAAAELENLPGVSPEMAARLQRAMRGIGQAQGKVNRVVSTYDRASRALLGIDERLDALKVQVNSAAQAVGKVAGDISPTLAGVLPSWLLAPSATPPSEAAASLPHLLVLQPLTANAQPFYFNLNTAAFDALQRNSAYNWSGQVRLGRRPALQSVGMGEESILLKGAVFPLRRQVGNQEKVVGLEQLEALRRLAERREPLILSSGYGEVQMGLWCLVRISENQSALLGNGAPRKQTFDLEFKRYGDDLPNR,not soluble
